Test [1] deals with T1, native human IGF-IR on human tumor cells (human, UniProt P08069 31-1367).
T1 construct: whole, on cells; also called native IGF-IR; endogenous cellular IGF-IR
The test is described as follows: competition: blocking of IGF-I binding to MCF7 cells (breast). On the procedure:
(§1) The anti-IGF-IR antibodies were tested for blocking of radiolabeled ligand binding to native IGF-IR on human tumor cells (FIG. 1C). Assay conditions were performed according to Arteaga and Osborne (Cancer Res. 49:6237-41 (1989)), with minor modifications. MCF7 human breast cancer cells were seeded into 24 well dishes, and cultured overnight. Sub-confluent monolayers were washed 2-3 times in binding buffer (Iscove's Medium/0.1% BSA) and antibody added in binding buffer. […] The wells were then washed three times with ice-cold PBS/0.1% BSA. Monolayers were then lysed with 200 μl 0.5N NaOH and counted in a gamma counter.

For test [2], the target named is T1, native human IGF-IR on human tumor cells. Description: competition: blocking of IGF-I binding to T47D cells (breast).
Test [3] shares this target. Description: competition: blocking of IGF-I binding to BXPC3 cells (pancreatic).
Test [4] shares this target. The test is described as follows: competition: blocking of 125I-IGF-I binding to IGF-IR on MCF7 cells. On the procedure:
as §1

Test [5] has the same target. Description: competition: blocking of IGF-I binding to OV90 cells (ovarian).
Test [6] shares this target. Description: competition: blocking of IGF-I binding to SK-ES1 cells (Ewing sarcoma).
Test [7] has the same target. The test is described as follows: competition: blocking of IGF-I binding to 8226 cells (myeloma).
Test [8] has the same target. Description: competition: blocking of IGF-I binding to HT-29 cells (colorectal).
Test [9] addresses T2, recombinant mouse IGF-IR (mIGF-IR) (mouse, UniProt Q60751 31-933, limits assumed).
T2 construct: also called mIGF-ER
Description: ELISA on immobilized recombinant mouse IGF-IR.

The target of test [10] is T1, native human IGF-IR on human tumor cells. The test is described as follows: competition: blocking of IGF-I binding to HPAC cells (pancreatic).

Broadly, the IC50 is the concentration that inhibits the measured activity by half. A high value points to weaker potency. In general, EC50 refers to the midpoint of the concentration-response curve.

Several values for one entry are separate records, joined by “and”; a condition that tells them apart may be missing. Equal values may be shown once.

T2 sequence (Q60751 31-933 limits assumed): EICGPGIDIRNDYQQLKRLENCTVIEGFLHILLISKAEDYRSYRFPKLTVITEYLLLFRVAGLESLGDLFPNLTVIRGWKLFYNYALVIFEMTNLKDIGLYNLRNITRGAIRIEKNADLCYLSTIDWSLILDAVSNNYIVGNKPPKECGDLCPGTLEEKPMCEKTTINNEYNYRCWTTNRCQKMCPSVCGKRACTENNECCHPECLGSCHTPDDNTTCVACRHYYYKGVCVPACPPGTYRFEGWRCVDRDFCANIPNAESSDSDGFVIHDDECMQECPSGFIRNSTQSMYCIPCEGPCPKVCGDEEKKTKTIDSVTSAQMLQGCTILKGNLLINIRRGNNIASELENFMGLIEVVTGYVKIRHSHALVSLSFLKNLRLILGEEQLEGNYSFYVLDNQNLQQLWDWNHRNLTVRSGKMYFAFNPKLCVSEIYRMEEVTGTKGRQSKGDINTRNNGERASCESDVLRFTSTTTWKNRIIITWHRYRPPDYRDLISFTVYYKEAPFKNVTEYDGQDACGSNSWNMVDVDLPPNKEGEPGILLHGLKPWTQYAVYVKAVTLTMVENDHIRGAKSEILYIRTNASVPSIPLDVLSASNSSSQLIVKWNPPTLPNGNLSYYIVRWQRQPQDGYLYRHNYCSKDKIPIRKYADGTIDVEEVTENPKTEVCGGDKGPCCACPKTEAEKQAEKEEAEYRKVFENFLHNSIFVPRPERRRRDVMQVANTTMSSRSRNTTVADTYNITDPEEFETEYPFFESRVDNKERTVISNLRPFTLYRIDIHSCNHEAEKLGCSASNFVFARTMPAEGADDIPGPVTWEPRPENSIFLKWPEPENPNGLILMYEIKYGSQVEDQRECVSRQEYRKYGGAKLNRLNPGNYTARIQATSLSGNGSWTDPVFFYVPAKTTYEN

B1: antibody A12 (fully human IgG1 anti-IGF-IR antibody) (antibody, V domains shown)
VH: EVQLVQSGAEVKKPGSSVKVSCKASGGTFSSYAISWVRQAPGQGLEWMGGIIPIFGTANYAQKFQGRVTITADKSTSTAYMELSSLRSEDTAVYYCARAPLRFLEWSTQDHYYYYYMDVWGKGTTVTVSS
VL: SSELTQDPAVSVALGQTVRITCQGDSLRSYYATWYQQKPGQAPILVIYGENKRPSGIPDRFSGSSSGNTASLTITGAQAEDEADYYCKSRDGSGQHLVFGGGTKLTVLG
notes: also called A12 IgG
B1: the 50% inhibitory concentration (IC50) was 3 nM in [1]; 6 nM in test [2]; 20 nM in test [3]; 0.45 µg/mL in test [4]; 6 nM in test [5]; 2 nM in test [6]. Further, the figures for the IC50 in test [7], in test [8] and in [10] were 20 nM, 10 nM and 10 nM, respectively. Besides, in test [9], the EC50 is 0.3 to 0.5 nM.

B2: antibody 2F8 (fully human IgG1 anti-IGF-IR antibody) (antibody, V domains shown)
VH: B1 VH
VL: SSELTQDPAVSVALGQTVRITCQGDSLRSYYASWYQQKPGQAPVLVIYGKNNRPSGIPDRFSGSSSGNTASLTITGAQAEDEADYYCNSRDNSDNRLIFGGGTKLTVLS
notes: also called 2F8 IgG
Take B2: the IC50 in test [4] is 30 nM and 4.5 µg/mL.

The record behind these values is patent publication US20100028342A1 (published 2010).
